Patent US20260356970 (published 2026)

T1: EMR2 (human, UniProt Q9UHX3)
T1 chain: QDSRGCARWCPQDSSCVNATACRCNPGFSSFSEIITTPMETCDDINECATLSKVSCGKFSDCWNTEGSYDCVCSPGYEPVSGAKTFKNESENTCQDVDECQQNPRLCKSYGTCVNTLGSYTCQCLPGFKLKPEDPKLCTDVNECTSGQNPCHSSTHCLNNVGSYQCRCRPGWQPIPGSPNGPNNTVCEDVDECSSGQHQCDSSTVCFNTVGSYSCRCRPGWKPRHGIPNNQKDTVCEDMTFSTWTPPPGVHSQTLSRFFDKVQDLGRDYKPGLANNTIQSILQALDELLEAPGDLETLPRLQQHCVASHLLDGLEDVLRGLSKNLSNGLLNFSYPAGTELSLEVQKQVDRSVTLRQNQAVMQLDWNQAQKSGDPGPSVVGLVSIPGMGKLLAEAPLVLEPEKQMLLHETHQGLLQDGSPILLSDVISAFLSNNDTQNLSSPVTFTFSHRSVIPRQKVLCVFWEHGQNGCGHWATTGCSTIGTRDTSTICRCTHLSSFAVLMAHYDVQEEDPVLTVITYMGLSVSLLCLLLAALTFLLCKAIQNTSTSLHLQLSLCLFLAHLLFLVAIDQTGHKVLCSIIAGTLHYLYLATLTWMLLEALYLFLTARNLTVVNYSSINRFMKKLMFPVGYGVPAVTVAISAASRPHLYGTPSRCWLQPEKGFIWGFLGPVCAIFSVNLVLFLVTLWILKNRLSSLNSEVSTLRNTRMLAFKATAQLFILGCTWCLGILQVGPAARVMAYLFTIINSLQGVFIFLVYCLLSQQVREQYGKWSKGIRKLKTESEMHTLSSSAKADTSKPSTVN

B1: EMR2-1-scFv (antibody, V domains shown)
VH: QVQLVQSGAEVKKPGASVKVSCKASGYTFTSYGISWVRQAPGQGLEWMGWISAYNGNTNYAQKLQGRVTMTTDTSTSTAYMELRSLRSDDTAVYYCARGYAFDIWGQGTMVTVSS
VL: SYELTQPLSVSVALGQTARITCGGNNIGSKNVHWYQQKPGQAPVLVIYRDSNRPSGIPERFSGSNSGNTATLTINRAQAGDEADYYCQVWDSSTVVFGGGTELTVL
B2: EMR2-3-VH (designed binder)
chain: QVQLVQSGGGLVQPGGSLRLSCAASDFSFDSYEMSWVRQAPGKGLEWVSSISASGGRTFYADSVKGRFTISRDNSKNTLYLQMNTLRAEDTALYYCARHPGIMGQGTLVTVSS
B3: EMR2-2-scFv (antibody, V domains shown)
VH: QVQPVESGGGLVQPGGSLRLSCAASGFTFSSYEMNWVRQAPGKGLEWVSAISGGGGSTYYADSVKGRFTISRDNSKNTLYLQMNSLRAEDTAVYYCAKSGRGWAAAGRWGQGTLVTVSS
VL: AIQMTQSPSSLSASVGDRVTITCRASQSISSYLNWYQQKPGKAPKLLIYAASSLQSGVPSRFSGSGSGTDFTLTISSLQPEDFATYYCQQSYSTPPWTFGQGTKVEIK

Target: T1, EMR2
Assay: ELISA

Binder	EC50 [nM]
B1	< 1
B2	< 1
B3	< 1
